From PMC9482650, “Quantitative fragmentomics allow affinity mapping of interactomes” (Nature Communications, 2022)

T1: APBA1_1, Q02410
T1 sequence (Q02410 651-752, limits assumed, looked up): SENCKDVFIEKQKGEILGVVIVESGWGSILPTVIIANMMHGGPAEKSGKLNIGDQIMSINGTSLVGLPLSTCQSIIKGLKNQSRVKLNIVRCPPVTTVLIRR

T2: DLG3_2, Q92796
T2 sequence (Q92796 221-321, limits assumed, looked up): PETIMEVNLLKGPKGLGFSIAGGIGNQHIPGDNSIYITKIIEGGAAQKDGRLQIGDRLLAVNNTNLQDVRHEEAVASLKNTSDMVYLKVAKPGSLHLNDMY

T3: DLG3_3, Q92796
T3 sequence (Q92796 374-475, limits assumed, looked up): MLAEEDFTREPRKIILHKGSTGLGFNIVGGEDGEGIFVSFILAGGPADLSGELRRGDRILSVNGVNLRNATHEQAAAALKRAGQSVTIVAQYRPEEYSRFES

T4: GRIP1_5, Q9Y3R0
T4 sequence (Q9Y3R0 568-668, limits assumed, looked up): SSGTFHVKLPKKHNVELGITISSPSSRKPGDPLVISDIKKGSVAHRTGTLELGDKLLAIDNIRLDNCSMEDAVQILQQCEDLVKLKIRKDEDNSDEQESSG

T5: LIN7A, O14910
T5 sequence (O14910 103-200, limits assumed, looked up): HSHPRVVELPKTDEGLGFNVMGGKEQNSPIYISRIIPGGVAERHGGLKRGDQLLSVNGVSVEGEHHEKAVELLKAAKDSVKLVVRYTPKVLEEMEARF

T6: MPDZ_5, O75970
T6 sequence (O75970 695-796, limits assumed, looked up): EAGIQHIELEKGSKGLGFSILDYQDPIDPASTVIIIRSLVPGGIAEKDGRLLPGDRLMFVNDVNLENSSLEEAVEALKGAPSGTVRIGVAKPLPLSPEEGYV

T7: MPP6, Q9NZW5
T7 sequence (Q9NZW5 125-219, limits assumed, looked up): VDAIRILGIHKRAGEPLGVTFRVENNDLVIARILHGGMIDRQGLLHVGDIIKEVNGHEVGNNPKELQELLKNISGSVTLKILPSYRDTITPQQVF

T8: RADIL, Q96JH8
T8 sequence (Q96JH8 971-1071, limits assumed, looked up): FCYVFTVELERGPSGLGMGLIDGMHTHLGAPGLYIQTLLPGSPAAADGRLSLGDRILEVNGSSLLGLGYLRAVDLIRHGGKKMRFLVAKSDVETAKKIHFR

T9: SHANK1, Q9Y566
T9 sequence (Q9Y566 658-767, limits assumed, looked up): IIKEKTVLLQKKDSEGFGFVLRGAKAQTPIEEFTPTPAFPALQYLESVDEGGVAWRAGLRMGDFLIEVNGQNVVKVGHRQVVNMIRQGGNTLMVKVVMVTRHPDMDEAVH

T10: SIPA1L2, Q9P2F8
T10 sequence (Q9P2F8 945-1036, limits assumed, looked up): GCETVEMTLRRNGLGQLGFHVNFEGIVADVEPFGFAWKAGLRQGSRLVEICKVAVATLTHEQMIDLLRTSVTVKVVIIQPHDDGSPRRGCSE


What was measured:
Assay in all cases: holdup assay
Parameters in all cases: key: below the threshold = too weak to quantify, mostly under pKd 3.1 to 4
Conditions in all cases: plain residues with an end cap or a label only (N-terminal biotin on a linker: ado-ado)
APBA1_1, Q02410 = molecular target: T1, APBA1_1, Q02410
ARHGEF12, Q9NZN5-2 = molecular target: ARHGEF12, Q9NZN5-2
ARHGEF12, Q9NZN5-2, sequence (Q9NZN5 other isoform, or with tags, fused parts or gaps): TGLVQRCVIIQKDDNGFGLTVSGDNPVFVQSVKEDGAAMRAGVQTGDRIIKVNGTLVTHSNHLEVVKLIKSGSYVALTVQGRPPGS

DLG2_2, Q15700 = molecular target: DLG2_2, Q15700
DLG2_2, Q15700, sequence (Q15700 189-283): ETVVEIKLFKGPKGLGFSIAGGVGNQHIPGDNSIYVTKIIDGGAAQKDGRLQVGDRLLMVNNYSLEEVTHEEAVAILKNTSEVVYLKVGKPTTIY

DLG3_2, Q92796 = molecular target: T2, DLG3_2, Q92796
DLG3_3, Q92796 = molecular target: T3, DLG3_3, Q92796
DLG4_3, P78352 = molecular target: DLG4_3, P78352
DLG4_3, P78352, sequence (P78352 306-403): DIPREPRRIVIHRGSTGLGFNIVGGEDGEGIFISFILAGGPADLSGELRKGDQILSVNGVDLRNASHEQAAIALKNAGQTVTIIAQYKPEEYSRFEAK

DLG5_1, Q8TDM6 = molecular target: DLG5_1, Q8TDM6
DLG5_1, Q8TDM6, sequence (Q8TDM6 617-713): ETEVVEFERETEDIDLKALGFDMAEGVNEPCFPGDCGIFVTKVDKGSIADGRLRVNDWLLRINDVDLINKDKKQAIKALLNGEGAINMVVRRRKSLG

FRMPD4, Q14CM0 = molecular target: FRMPD4, Q14CM0
FRMPD4, Q14CM0, sequence (Q14CM0 67-160): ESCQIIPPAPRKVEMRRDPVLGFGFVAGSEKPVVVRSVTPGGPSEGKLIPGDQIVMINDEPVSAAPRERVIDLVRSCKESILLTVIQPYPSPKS

GORASP2, Q9H8Y8 = molecular target: GORASP2, Q9H8Y8
GRASP, Q7Z6J2 = molecular target: GRASP, Q7Z6J2
GRASP, Q7Z6J2, sequence (Q7Z6J2 96-193): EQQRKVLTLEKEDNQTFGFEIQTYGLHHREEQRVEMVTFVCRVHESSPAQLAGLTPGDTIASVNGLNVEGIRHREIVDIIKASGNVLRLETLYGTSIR

GRIP1_5, Q9Y3R0 = molecular target: T4, GRIP1_5, Q9Y3R0
IL16_1, Q14005 = molecular target: IL16_1, Q14005
IL16_1, Q14005, sequence (Q14005 210-306): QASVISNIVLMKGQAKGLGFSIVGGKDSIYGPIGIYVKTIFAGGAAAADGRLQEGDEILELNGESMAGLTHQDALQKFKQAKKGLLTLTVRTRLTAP

LDB3, O75112 = molecular target: LDB3, O75112
LDB3, O75112, sequence (O75112 1-94): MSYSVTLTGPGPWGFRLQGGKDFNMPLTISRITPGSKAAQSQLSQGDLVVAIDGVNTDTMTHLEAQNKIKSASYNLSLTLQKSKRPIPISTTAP

LIN7A, O14910 = molecular target: T5, LIN7A, O14910
MAGI1_2, Q96QZ7 = molecular target: MAGI1_2, Q96QZ7
MAGI1_2, Q96QZ7, sequence (Q96QZ7 456-580): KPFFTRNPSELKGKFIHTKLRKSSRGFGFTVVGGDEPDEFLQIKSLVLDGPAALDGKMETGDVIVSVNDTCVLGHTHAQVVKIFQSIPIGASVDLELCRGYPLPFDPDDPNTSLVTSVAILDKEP

MAGI2_2, Q86UL8 = molecular target: MAGI2_2, Q86UL8
MAGI2_2, Q86UL8, sequence (Q86UL8 410-522): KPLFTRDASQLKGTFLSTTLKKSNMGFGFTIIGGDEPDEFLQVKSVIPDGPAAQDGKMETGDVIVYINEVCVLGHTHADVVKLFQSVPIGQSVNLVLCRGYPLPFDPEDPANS

MAGI2_3, Q86UL8 = molecular target: MAGI2_3, Q86UL8
MAGI2_3, Q86UL8, sequence (Q86UL8 600-682): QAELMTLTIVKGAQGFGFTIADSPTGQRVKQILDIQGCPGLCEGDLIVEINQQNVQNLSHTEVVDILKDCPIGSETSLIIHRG

MAGI3_2, Q5TCQ9 = molecular target: MAGI3_2, Q5TCQ9
MAGI3_2, Q5TCQ9, sequence (Q5TCQ9 398-503): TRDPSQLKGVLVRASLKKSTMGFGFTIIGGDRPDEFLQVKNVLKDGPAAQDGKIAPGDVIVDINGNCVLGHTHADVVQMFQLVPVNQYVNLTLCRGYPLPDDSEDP

MPDZ_5, O75970 = molecular target: T6, MPDZ_5, O75970
MPP6, Q9NZW5 = molecular target: T7, MPP6, Q9NZW5
PDLIM1, O00151 = molecular target: PDLIM1, O00151
PDLIM1, O00151, sequence (O00151 1-87): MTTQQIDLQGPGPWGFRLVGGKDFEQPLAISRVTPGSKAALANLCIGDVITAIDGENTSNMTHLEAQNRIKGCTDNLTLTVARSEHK

RADIL, Q96JH8 = molecular target: T8, RADIL, Q96JH8
SCRIB_2, Q14160 = molecular target: SCRIB_2, Q14160
SCRIB_2, Q14160, sequence (Q14160 857-960): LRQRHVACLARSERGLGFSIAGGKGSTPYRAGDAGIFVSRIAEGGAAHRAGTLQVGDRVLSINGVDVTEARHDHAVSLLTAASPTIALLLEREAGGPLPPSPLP

SCRIB_3, Q14160 = molecular target: SCRIB_3, Q14160
SCRIB_3, Q14160, sequence (Q14160 999-1103): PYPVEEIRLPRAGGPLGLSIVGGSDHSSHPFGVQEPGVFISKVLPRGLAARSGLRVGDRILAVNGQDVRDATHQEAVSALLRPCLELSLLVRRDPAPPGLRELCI

SHANK1, Q9Y566 = molecular target: T9, SHANK1, Q9Y566
SIPA1L2, Q9P2F8 = molecular target: T10, SIPA1L2, Q9P2F8
TJP1_2, Q07157 = molecular target: TJP1_2, Q07157
TJP1_2, Q07157, sequence (Q07157 181-274): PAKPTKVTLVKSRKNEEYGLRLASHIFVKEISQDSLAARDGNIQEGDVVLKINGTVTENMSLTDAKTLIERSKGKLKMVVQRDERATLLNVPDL

TJP2_1, Q9UDY2 = molecular target: TJP2_1, Q9UDY2
TJP2_1, Q9UDY2, sequence (Q9UDY2 24-128): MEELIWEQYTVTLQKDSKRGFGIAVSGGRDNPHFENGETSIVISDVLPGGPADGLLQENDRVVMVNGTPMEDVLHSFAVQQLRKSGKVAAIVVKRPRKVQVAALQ

Binder | pKd (APBA1_1, Q02410) | pKd (ARHGEF12, Q9NZN5-2) | pKd (DLG2_2, Q15700) | pKd (DLG3_2, Q92796) | pKd (DLG3_3, Q92796) | pKd (DLG4_3, P78352) | pKd (DLG5_1, Q8TDM6) | pKd (FRMPD4, Q14CM0) | pKd (GORASP2, Q9H8Y8) | pKd (GRASP, Q7Z6J2) | pKd (GRIP1_5, Q9Y3R0) | pKd (IL16_1, Q14005) | pKd (LDB3, O75112) | pKd (LIN7A, O14910) | pKd (MAGI1_2, Q96QZ7) | pKd (MAGI2_2, Q86UL8) | pKd (MAGI2_3, Q86UL8) | pKd (MAGI3_2, Q5TCQ9) | pKd (MPDZ_5, O75970) | pKd (MPP6, Q9NZW5) | further results
SSSVNVSSNL [CXCR1, P25024] | below the threshold | 4.24 | below the threshold | below the threshold | below the threshold | below the threshold | below the threshold | 3.57 | below the threshold | 3.63 | below the threshold | below the threshold | below the threshold | below the threshold | below the threshold | below the threshold | 3.5 | below the threshold | below the threshold | below the threshold | pKd (PDLIM1, O00151): below the threshold; pKd (RADIL, Q96JH8): below the threshold; pKd (SCRIB_2, Q14160): below the threshold; pKd (SCRIB_3, Q14160): 4.02; pKd (SHANK1, Q9Y566): 3.94; pKd (SIPA1L2, Q9P2F8): below the threshold; pKd (TJP1_2, Q07157): below the threshold; pKd (TJP2_1, Q9UDY2): below the threshold
LLQEEWETVM [PTH1R, Q03431] | below the threshold | 3.61 | below the threshold | below the threshold | below the threshold | below the threshold | below the threshold | 4.12 | below the threshold | 3.72 | below the threshold | below the threshold | below the threshold | below the threshold | below the threshold | below the threshold | 3.59 | below the threshold | below the threshold | below the threshold | pKd (PDLIM1, O00151): below the threshold; pKd (RADIL, Q96JH8): 3.99; pKd (SCRIB_2, Q14160): below the threshold; pKd (SCRIB_3, Q14160): 4.64; pKd (SHANK1, Q9Y566): 4.85; pKd (SIPA1L2, Q9P2F8): below the threshold; pKd (TJP1_2, Q07157): below the threshold; pKd (TJP2_1, Q9UDY2): below the threshold
HLSTRQGTCV [ATRNL1, Q5VV63] | below the threshold | 3.51 | 4.21 | 4.22 | 3.85 | 3.87 | below the threshold | 3.51 | 4.15 | 4.28 | below the threshold | 3.63 | below the threshold | below the threshold | 4.65 | 4.73 | below the threshold | 5.16 | 3.66 | below the threshold | pKd (PDLIM1, O00151): below the threshold; pKd (RADIL, Q96JH8): 4.28; pKd (SCRIB_2, Q14160): 4.02; pKd (SCRIB_3, Q14160): 4.13; pKd (SHANK1, Q9Y566): below the threshold; pKd (SIPA1L2, Q9P2F8): below the threshold; pKd (TJP1_2, Q07157): below the threshold; pKd (TJP2_1, Q9UDY2): 4.35
HYPASPDSWV [CTNND2, Q9UQB3] | below the threshold | below the threshold | 4.09 | 4.3 | below the threshold | below the threshold | below the threshold | 3.76 | 4.51 | 3.76 | below the threshold | 4.24 | 3.74 | below the threshold | below the threshold | below the threshold | 3.58 | 3.86 | below the threshold | below the threshold | pKd (PDLIM1, O00151): 4.06; pKd (RADIL, Q96JH8): 5.02; pKd (SCRIB_2, Q14160): 4.81; pKd (SCRIB_3, Q14160): 4.4; pKd (SHANK1, Q9Y566): below the threshold; pKd (SIPA1L2, Q9P2F8): below the threshold; pKd (TJP1_2, Q07157): 4.19; pKd (TJP2_1, Q9UDY2): 4.37
VCMGDHWFDV [PRKN, O60260] | below the threshold | below the threshold | below the threshold | below the threshold | below the threshold | below the threshold | below the threshold | 3.86 | 4.77 | 3.53 | below the threshold | below the threshold | 3.9 | below the threshold | below the threshold | below the threshold | below the threshold | below the threshold | below the threshold | 4.01 | pKd (PDLIM1, O00151): 3.83; pKd (RADIL, Q96JH8): 4.44; pKd (SCRIB_2, Q14160): below the threshold; pKd (SCRIB_3, Q14160): 3.98; pKd (SHANK1, Q9Y566): below the threshold; pKd (SIPA1L2, Q9P2F8): below the threshold; pKd (TJP1_2, Q07157): below the threshold; pKd (TJP2_1, Q9UDY2): below the threshold
